Test results published in publication PMC8563757, “NudCL2 is an autophagy receptor that mediates selective autophagic degradation of CP110 at mother centrioles to promote ciliogenesis” (Cell Research, 2021).

Molecular target: T1, His-CP110 (mouse, UniProt Q7TSH4 1-1004)
T1 construct: Full-length mouse CP110 cloned by RT-PCR into pFastBac-HT A (His-tag vector); also called purified His-CP110; source: insect Sf9 cells, Bac-to-Bac baculovirus expression system, purified
T1 sequence (looked up): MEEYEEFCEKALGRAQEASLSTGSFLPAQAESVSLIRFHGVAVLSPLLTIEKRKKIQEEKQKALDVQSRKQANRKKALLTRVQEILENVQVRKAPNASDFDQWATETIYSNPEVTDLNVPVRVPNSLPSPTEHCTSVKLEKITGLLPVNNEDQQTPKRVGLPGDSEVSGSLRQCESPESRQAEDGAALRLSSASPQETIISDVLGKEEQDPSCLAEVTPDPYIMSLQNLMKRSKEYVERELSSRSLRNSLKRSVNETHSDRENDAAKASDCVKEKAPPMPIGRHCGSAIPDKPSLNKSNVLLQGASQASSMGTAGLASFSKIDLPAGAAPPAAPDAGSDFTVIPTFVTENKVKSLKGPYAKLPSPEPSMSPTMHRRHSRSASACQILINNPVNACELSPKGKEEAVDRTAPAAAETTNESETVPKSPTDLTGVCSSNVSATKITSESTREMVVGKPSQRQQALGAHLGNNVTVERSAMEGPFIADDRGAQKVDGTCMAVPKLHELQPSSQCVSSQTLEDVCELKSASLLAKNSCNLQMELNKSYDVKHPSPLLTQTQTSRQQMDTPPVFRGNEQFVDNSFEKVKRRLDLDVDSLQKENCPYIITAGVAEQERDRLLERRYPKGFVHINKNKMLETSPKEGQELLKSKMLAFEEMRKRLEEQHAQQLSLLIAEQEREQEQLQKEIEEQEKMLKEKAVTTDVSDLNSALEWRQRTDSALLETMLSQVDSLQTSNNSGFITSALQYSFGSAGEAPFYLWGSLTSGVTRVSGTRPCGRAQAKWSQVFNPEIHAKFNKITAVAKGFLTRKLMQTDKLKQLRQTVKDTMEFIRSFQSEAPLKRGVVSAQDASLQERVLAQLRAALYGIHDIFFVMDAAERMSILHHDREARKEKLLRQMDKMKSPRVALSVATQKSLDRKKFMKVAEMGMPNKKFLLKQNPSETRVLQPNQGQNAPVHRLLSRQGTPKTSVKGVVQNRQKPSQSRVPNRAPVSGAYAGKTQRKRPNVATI
Test: pull-down; GST pull-down of two purified proteins, incubated in PBS at 4 °C for 4 h, glutathione-agarose beads 2 h, western blotting
Conditions: both partners purified

B1: GST-NudCL2 (natural protein, mouse, UniProt Q9CQ48 1-157, looked up)
chain: MSAPFEERSGVVPCGTPWGQWYQTLEEVFIEVQVPPGTRAQDIQCGLQSRHVALAVGGREILKGKLFDSTIADEGTWTLEDRKMVRIVLTKTKRDAANCWTSLLESEYAADPWVQDQMQRKLTLERFQKENPGFDFSGAEISGNYTKGGPDFSNLEK
notes: Full-length mouse NudCL2 amplified from total cDNA by RT-PCR and cloned into pGEX5X-1; also called purified GST-NudCL2; source: Escherichia coli BL21, purified
B1: binds.
